Target: C8-αGFP chimera (anti-GFP CDRs grafted into the C8WT scaffold) fused to mCherry
Assay: SEC; gel filtration after IMAC on Superdex 75 10/30 in PBS, pH 7.4, 1 mM DTT

stoichiometry N: 2
B1: C8-αGFP chimera (anti-GFP CDRs grafted into the C8WT scaffold) fused to mCherry (VHH)
VHH: DVQLQASGGGLAQPGGSLRLSCAASGFPVNRYSMYWVRQAPGKGLEWVSSISSAGDRSSYYADSVKGRFTISRDNAKNTLYLQMNSLKLEDTALYFCAVNVGFEGQGTQVTVSS

Reference: paper PMC7911018
